Consider 2 substances from US20040258663A1, “Compositions and methods for enhanced mucosal delivery of interferon alpha” (Nastech Pharmaceutical Company Inc., priority 2003, published 2004).

The nature of data set [1]: Bioavailability of nasal interferon-α in healthy male volunteers versus subcutaneous administration. Type of data set: in vivo, human. The note with it: for Cmax: 3 MIU, SC, human plasma.
Text: The present example provides a non-blinded study to determine the uptake of intranasally administered interferon-α in combination with one or more intranasal delivery-enhancing agents into the blood serum in healthy male volunteers.
Twelve healthy male subjects are enrolled in the step and each receives all 3 test product in a cross over fashion.
Each receive all 3 test products.
The protocol involved three doses of the same test product in a dose escalation manner.
The absorption and tolerance results of all products tested were tabulated and analyzed for Cmax, Tmax, and bioavailability (Area under concentration curve, AUC).
For nasal and injectable preparations in Protocols 1 and 2, 7 mL blood samples were drawn at 0 (prior to dose), 10, 20, 30, 45, 60, 75, 90, 120, 180, 240, 360, and 480 minutes post dosing into appropriate vacutainers.
The blood samples were centrifuged and the serum assayed for drug concentration using ELISA Method.
This is a single dose, parallel group study to evaluate absorption, tolerance and pharmacodynamic parameters of Interferon-α-2b by two routes of administration: subcutaneous and intranasally. The study involves twelve healthy male subjects randomly assigned six per group (6 subjects subcutaneous and 6 intranasal). The objective of the study is to evaluate the absorption, tolerance and pharmacodynamic parameters of intranasal administration of Interferon-α-2b by formulations of the present invention versus subcutaneous administration of interferon-α-2b (IntronA®, Schering, Corp.).
When receiving the intranasal dosage formulations, the subjects were seated and instructed to gently blow their nose before dosing. During dosing, the other nostril must be closed with the forefinger. They were also instructed to tilt their heads slightly back for dosing and to return their heads to an upright position while sniffing in gently immediately following dosing. Subjects must avoid additional sniffing and must remain in a seated position with head upright for 5 minutes after dosing. […]
Serum drug concentrations were measured using a suitable analytical method. […]
In data set [2] the test system is EpiAirway™ Cell Membrane (mucosal epithelial cell layer). In words: Permeation kinetics of interferon-α-2b measured by ELISA assay. The following applies: Table 9. For orientation: An ELISA detects its analyte on a solid surface through an enzyme-linked reagent.
Experimental: (§1) The epithelial cells are grown on porous membrane-bottomed cell culture inserts at an air-liquid interface, which results in differentiation of the cells to a highly polarized morphology. […] The inserts have a diameter of 0.875 cm, providing a surface area of 0.6 cm^2.
(§2) A. On arrival, the units are placed onto sterile supports in 6-well microplates. Each well receives 5 mL of proprietary culture medium. This DMEM-based medium is serum free but is supplemented with epidermal growth factor and other factors. The medium is always tested for endogenous levels of any cytokine or growth factor which is being considered for intranasal delivery, but has been free of all cytokines and factors studied to date except insulin. The 5 mL volume is just sufficient to provide contact to the bottoms of the units on their stands, but the apical surface of the epithelium is allowed to remain in direct contact with air. Sterile tweezers are used in this step and in all subsequent steps involving transfer of units to liquid-containing wells to ensure that no air is trapped between the bottoms of the units and the medium.
(§3) B. The units in their plates are maintained at 37° C. in an incubator in an atmosphere of 5% CO2 in air for 24 hours. At the end of this time the medium is replaced with fresh medium and the units are returned to the incubator for another 24 hours.
(§4) A. A “kit” of 24 EpiAirway units can routinely be employed for evaluating five different formulations, each of which is applied to quadruplicate wells. Each well is employed for determination of permeation kinetics (4 time points), transepithelial resistance, mitochondrial reductase activity as measured by MTT reduction, and cytolysis as measured by release of LDH. An additional set of wells is employed as controls, which are sham treated during determination of permeation kinetics, but are otherwise handled identically to the test sample-containing units for determinations of transepithelial resistance and viability.
(§5) B. In all experiments, the mucosal delivery formulation to be studied is applied to the apical surface of each unit in a volume of 100 μL, which is sufficient to cover the entire apical surface. An appropriate volume of the test formulation at the concentration applied to the apical surface (no more than 100 μL is generally needed) is set aside for subsequent determination of concentration of the active material by ELISA or other designated assay.
(§6) D. In order to minimize potential sources of error and avoid any formation of concentration gradients, the units are transferred from one 0.9 mL-containing well to another at each time point in the study. These transfers are made at the following time points, based on a zero time at which the 100 αL volume of test material was applied to the apical surface: 15 minutes, 30 minutes, 60 minutes, and 120 minutes.
(§7) E. In between time points the units in their plates are kept in the 37° C. incubator. Plates containing 0.9 mL medium per well are also maintained in the incubator so that minimal change in temperature occurs during the brief periods when the plates are removed and the units are transferred from one well to another using sterile forceps.
Data set [3] has as its system EpiAirway cell membrane. It is filed as cell-based. The note with it: Table 11. An excerpt: While measurement of mitochondrial reductase activity by MTT reduction is a sensitive probe of cell viability, the assay necessarily destroys the cells and therefore can be carried out only at the end of each study. When cells undergo necrotic lysis, their cytotosolic contents are spilled into the surrounding medium, and cytosolic enzymes such as lactic dehydrogenase (LDH) can be detected in this medium. An assay for LDH in the medium can be performed on samples of medium removed at each time point of the two-hour determination of permeation kinetics.
A. The recommended LDH assay for evaluating cytolysis of the EpiAirway units is based on conversion of lactate to pyruvate with generation of NADH from NAD. The NADH is then reoxidized along with simultaneous reduction of the tetrazolium salt INT, catalyzed by a crude “diaphorase” preparation. The formazan formed from reduction of INT is soluble, so that the entire assay for LDH activity can be carried out in a homogenous aqueous medium containing lactate, NAD, diaphorase, and INT.
B. The assay for LDH activity is carried out on 50 μL aliquots from samples of “supernatant” medium surrounding an EpiAirway unit and collected at each time point. These samples were either stored for no longer than 24 h in the refrigerator or were thawed after being frozen within a few hours after collection. Each EpiAirway unit generates samples of supernatant medium collected at 15 min, 30 min, 1 h, and 2 h after application of the test material. The aliquots are all transferred to a 96 well microplate.
C. A 50 μL aliquot of medium which had not been exposed to a unit serves as a “blank” or negative control of 0% cytotoxicity. […] Thus, within experimental error, these sham-treated units show no cytolysis of the epithelial cells over the time course of the permeation kinetics measurements.
D. To prepare a sample of supernatant medium reflecting the level of LDH released after 100% of the cells in a unit have lysed, a unit which had not been subjected to any prior manipulations is added to a well of a 6-well microplate containing 0.9 mL of medium as in the protocol for determination of permeation kinetics, the plate containing the unit is frozen at −80° C., and the contents of the well are then allowed to thaw. This freeze-thaw cycle effectively lyses the cells and releases their cytosolic contents, including LDH, into the supernatant medium. A 50 μL aliquot of the medium from the frozen and thawed cells is added to the 96-well plate as a positive control reflecting 100% cytotoxicity.
E. To each well containing an aliquot of supernatant medium, a 50 μL aliquot of the LDH assay reagent is added. The plate is then incubated for 30 minutes in the dark.
F. The reactions are terminated by addition of a “stop” solution of 1 M acetic acid, and within one hour of addition of the stop solution, the absorbance of the plate is determined at 490 nm.
G. Computation of percent cytolysis is based on the assumption of a linear relationship between absorbance and cytolysis, with the absorbance obtained from the medium alone serving as a reference for 0% cytolysis and the absorbance obtained from the medium surrounding a frozen and thawed unit serving as a reference for 100% cytolysis.

For data set [4], the system named is EpiAirway™ Cell Membrane (mucosal epithelial cell layer).
Experimental: as §1, §2, §3, §4, §5, §6, §7
Data set [5] has as its system ciliary function in epithelial cell cultures. The note with it: cited from earlier work.

With interferon α-2b [Intron A], the Cmax in data set [1] (0 to 3 hour) was found to be 4.0 IU/mL; in data set [1] (0 to 4 hour), 6.8 IU/mL. Moreover, the “maximum concentration of interferon-α in the blood serum (Cmax)” value in data set [1] (subcutaneous, 3 MIU dose, at 3 hours post dosing) amounted to 4.0 IU/mL. For the same substance, the “% Permeated at Time-intervals (min), 0 min” value in data set [2] (0 min) is 0%. In data set [2] (15 min), the “% Permeated at Time-intervals (min), 15 min” value was 0.000%. For the same substance, the “% Permeated at Time-intervals (min), 30 min” value in data set [2] (30 min) came out at 0.003%. In addition, in data set [2] (60 min), the “% Permeated at Time-intervals (min), 60 min” value is listed as 0.011%. Moreover, the “% Permeated at Time-intervals (min), 120 min” value in data set [2] (120 min) is 0.022%. Besides, the “% Dead Cells at Time-Intervals (min), 0” value in data set [3] (0 min) was found to be 0%. For the same substance, the “% Dead Cells at Time-Intervals (min), 15” value in data set [3] (15 min) is 0.84%. In data set [3] (30 min), the “% Dead Cells at Time-Intervals (min), 30” value is 0.93%. Also, the “% Dead Cells at Time-Intervals (min), 60” value in data set [3] (60 min) is given as 1.65%. Further, the “% Dead Cells at Time-Intervals (min), 120” value in data set [3] (120 min) is given as 4.27%. In addition, the “Fold Increase” value in data set [4] is on record as 1 fold.
Turning to “2-alkyl-4-hydroxyquinolines [pyo compound]”, the “concentration producing ciliostasis / inhibiting ciliary motility” value in data set [5] is 50 µg/mL.
